Source: patent publication US20190127468A1 (ONCOIMMUNE, published 2019)
Residue numbers refer to the chain shown, from its start. Names may count otherwise.

B1: human B7-1 Fc fusion protein (Fc fusion, UniProt P33681 35-242, looked up)
chain: VIHVTKEVKEVATLSCGHNVSVEELAQTRIYWQKEKKMVLTMMSGDMNIWPEYKNRTIFDITNNLSIVILALRPSDEGTYECVVLKYEKDAFKREHLAEVTLSVKADFPTPSISDFEIPTSNIRRIICSTSGGFPEPHLSWLENGEELNAINTTVSQDPETELYAVSSKLDFNMTTNHSFMCLIKYGHLRVNQTFNWNTTKQEHFPDN
modifications: biotinylated (sites not given)
notes: Control protein; Used biotinylated in soluble phase; also called Biotin-HB7-1; Biotin-hB7-1; not shown: Fc portion
B2: human B7-1 Fc fusion protein (Fc fusion, UniProt P33681 35-242, looked up)
chain: B1 chain
notes: also called B7-1 Ig; B7-1 Ig fusion protein; not shown: Fc portion, not described
B3: anti-mouse CTLA4 mAb 9D9 (antibody, V domains shown)
VH: EAKLQESGPVLVKPGASVKMSCKASGYTFTDYYMNWVKQSHGKSLEWIGVINPYNGDTSYNQKFKGKATLTVDKSSSTAYMELNSLTSEDSAVYYCARYYGSWFAYWGQGTLITVST
VL: DIVMTQTTLSLPVSLGDQASISCRSSQSIVHSNGNTYLEWYLQKPGQSPKLLIYKVSNRFSGVPDRFSGSGSGTDFTLKISRVEAEDLGVYYCFQGSHVPYTFGGGTKLEIK
B4: Humanized HC1 + LC2 (PP4631) (antibody, IgG1, V domains shown)
VH: QVQLQESGPGLVKPSETLSLTCTVSGFSLTSYGLSWIRQPPGKGLEWIGYIWYDGNTNFHPSLKSRVTISKDTSKNQFSLKLSSVTAADTAVYYCAKTEGHYYGSNYGYYALDYWGQGTSVTVSS
VL: DIQMTQSPSSLSASVGDRVTITCRASENIYSNLAWYQQKQGKAPKLLLYAATNLQDGVPSRFSGSGSGTDYTLTISSLQPEDFATYFCQHLWGTPYTFGQGTKLEIK
notes: Humanized L3D10; also called H3106 + L3107; HL12
B5: Humanized HC1 + LC1 (PP4630) (antibody, IgG1, V domains shown)
VH: B4 VH
VL: B4 VL with Q40P, D56S, Y71F, F87Y, Q100G
notes: Humanized L3D10; also called H3106 + L3106
B6: Humanized HC1 + LC3 (PP4632) (antibody, IgG1, V domains shown)
VH: B4 VH
VL: B4 VL with Q40P, L48I, N53S, D56S, Y71F, F87Y, Q100G, L104V
notes: Humanized L3D10; also called H3106 + L3108
B7: Humanized HC3 + LC3 (PP4638) (antibody, IgG1, V domains shown)
VH: B4 VH with P61S, S62P, K71V, S120L
VL: B4 VL with Q40P, L48I, N53S, D56S, Y71F, F87Y, Q100G, L104V
notes: Humanized L3D10; also called H3108 + L3108
B8: Humanized HC3 + LC2 (PP4637) (antibody, IgG1, V domains shown)
VH: B4 VH with P61S, S62P, K71V, S120L
VL: B4 VL
notes: Humanized L3D10; also called H3108 + L3107; HL32
B9: Humanized HC2 + LC3 (PP4635) (antibody, IgG1, V domains shown)
VH: B4 VH with P61S, N76S, F78V, S120L
VL: B4 VL with Q40P, L48I, N53S, D56S, Y71F, F87Y, Q100G, L104V
notes: Humanized L3D10; also called H3107 + L3108
B10: Humanized HC3 + LC1 (PP4636) (antibody, IgG1, V domains shown)
VH: B4 VH with P61S, S62P, K71V, S120L
VL: B4 VL with Q40P, D56S, Y71F, F87Y, Q100G
notes: Humanized L3D10; also called H3108 + L3106
B11: Humanized HC2 + LC2 (PP4634) (antibody, IgG1, V domains shown)
VH: B4 VH with P61S, N76S, F78V, S120L
VL: B4 VL
notes: Humanized L3D10; also called H3107 + L3107
B12: Humanized HC2 + LC1 (PP4633) (antibody, IgG1, V domains shown)
VH: B4 VH with P61S, N76S, F78V, S120L
VL: B4 VL with Q40P, D56S, Y71F, F87Y, Q100G
notes: Humanized L3D10; also called H3107 + L3106
B13: chimeric L3D10 antibody (antibody, V domains shown)
VH: QVQLKESGPGLVAPSQSLSITCTVSGFSLTSYGLSWVRQPPGKGLEWLGVIWYDGNTNFHSALISRLTISKDNSKSQVFLELNSLQTDDTATYYCAKTEGHYYGSNYGYYALDYWGQGTSVTVSS
VL: DIQMTQSPASLSVSVGETVTITCRASENIYSNLAWYQQKQGKSPQLLVYAATNLADGVPSRFSGSGSGTQYSLKINSLQSEDFGTYFCQHLWGTPYTFGGGTKLEIKR
notes: Biotinylated in the ELISAs; also called Chimeric Parental; PP4629
B14: chimeric L3D10 antibody (antibody, V domains shown)
VH: B13 VH
VL: B13 VL
modifications: biotinylated (sites not given)
notes: Mouse L3D10 variable regions on human IgG1 with M252Y, S254T, T256E, S298A, E333A, K334A; Used biotinylated in the ELISA; also called Biotin-L3D10; PP4629

Columns and labels:
[1] = molecular target: T1, human CTLA-4Fc mutant protein M6 (human); assay: ELISA on coated target; binder 1000 ng/ml
T1 construct: also called Mutant 6

[2] = molecular target: T2, human CTLA-4Fc mutant protein M8 (human); assay: ELISA on coated target; binder 1000 ng/ml
T2 construct: also called Mutant 8

[3] = molecular target: T1, human CTLA-4Fc mutant protein M6; assay: ELISA on coated target; binder 10 ng/ml
Control IgG1-Fc [4] = molecular target: T3, Control IgG1-Fc (human, UniProt P01857-1 99-330 = IgG part, limits assumed); assay: ELISA, plate-coated IgG1-Fc, biotinylated B7-1
T3 construct: domain: Fc; also called hIg-Fc; hIgG

[5] = molecular target: T4, mouse CTLA4-Fc fusion protein (mouse, UniProt P09793 36-162, limits assumed); assay: ELISA, binding to soluble mouse CTLA4-Fc (the legend gives no further details of the format)
T4 construct: also called mCTLA4-Fc; mCTLA-4; not shown: Fc portion, not described

[6] = molecular target: T4, mouse CTLA4-Fc fusion protein; assay: blocking ELISA: plate B7-2, biotinylated mouse CTLA4-Fc with the antibody, HRP-streptavidin; blocked ligand B7-2
Control IgG1-Fc [7] = molecular target: T3, Control IgG1-Fc; assay: ELISA: hIgGFc coated on the plate (negative control), biotinylated antibody in solution, HRP-streptavidin, OD450
[8] = molecular target: T4, mouse CTLA4-Fc fusion protein; assay: ELISA, plate-coated mCTLA4-Fc, biotinylated antibody
[9] = molecular target: T5, huCTLA4 (antigen of the Octet experiments) (human, UniProt P16410 37-162, limits assumed); assay: BLI (Octet Red96), antibody on anti-hIgG Fc biosensor, huCTLA4 in solution, 1:1 fit
T5 construct: Construct of the soluble antigen not described; also called the antigen
T5 sequence (P16410 37-162 limits assumed): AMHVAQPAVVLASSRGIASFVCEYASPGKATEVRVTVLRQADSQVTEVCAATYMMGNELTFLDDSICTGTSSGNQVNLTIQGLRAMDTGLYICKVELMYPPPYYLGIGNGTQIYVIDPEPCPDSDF

[10] = molecular target: T5, huCTLA4 (antigen of the Octet …); assay: BLI (Octet), purified 0.1 L material, replicate 1
[11] = molecular target: T5, huCTLA4 (antigen of the Octet …); assay: BLI (Octet), purified 0.1 L material, replicate 2
M12 = molecular target: T6, M12; assay: ELISA: CTLA-4Fc protein coated on the plate, biotinylated antibody in solution, HRP-streptavidin, OD450
T6 construct: human CTLA-4Fc with clusters of murine Ctla-4 residues; also called CTLA-4Fc M12

M14 = molecular target: T7, M14; assay: as above
T7 construct: human CTLA-4Fc mutant; also called CTLA-4Fc M14

M16 = molecular target: T8, M16; assay: as above
T8 construct: human CTLA-4Fc mutant; also called CTLA-4Fc M16
T8 mutant human CTLA-4 extracellular domain fused to IgG1 Fc: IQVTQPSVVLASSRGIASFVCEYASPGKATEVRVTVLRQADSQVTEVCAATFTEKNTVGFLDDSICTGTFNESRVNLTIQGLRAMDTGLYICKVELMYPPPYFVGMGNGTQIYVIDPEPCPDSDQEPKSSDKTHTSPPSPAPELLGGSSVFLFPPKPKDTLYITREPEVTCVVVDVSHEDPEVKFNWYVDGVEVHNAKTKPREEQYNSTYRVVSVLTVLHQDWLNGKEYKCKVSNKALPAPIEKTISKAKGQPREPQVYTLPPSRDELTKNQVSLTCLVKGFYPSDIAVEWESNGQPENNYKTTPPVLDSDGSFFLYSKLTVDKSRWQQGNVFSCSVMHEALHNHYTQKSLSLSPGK

Control IgG1-Fc [12] = molecular target: T3, Control IgG1-Fc; assay: ELISA: hIgGFc coated on the plate (negative control), biotinylated antibody in solution, HRP-streptavidin, OD450; remark: listed apart in the source
[13] = molecular target: T9, mouse CTLA4 in cells of Ctla4 m/m (WT) mice (mouse, UniProt P09793 36-223); assay: flow cytometry, intracellular staining of CTLA4 in spleen cells of Ctla4 m/m mice, gated on CD3+CD4+
T9 construct: whole, on cells; also called murine Ctla-4

[14] = molecular target: T1, human CTLA-4Fc mutant protein M6; assay: ELISA on coated target; binder 100 ng/ml

Binder	Kd [9]	koff [9]	kon [9]	further results
B1	–	–	–	OD450 [1]: 3.41 OD; OD450 [2]: 3.63 OD; OD450 [3]: 0.279 OD
B2	–	–	–	binding result (Control IgG1-Fc [4]): no binding
B3	–	–	–	EC50 (read off the curve) [5]: ~0.4 µg/mL; IC50 (read off the curve) [6]: ~1 µg/mL
B4	–	–	–	binding result (Control IgG1-Fc [7]): no binding (tested: 0.2 µg/mL); binding result [8]: no binding
B5	13 nM	0.0018 s⁻¹	130000 M⁻¹ s⁻¹	–
B6	12 nM	0.0019 s⁻¹	160000 M⁻¹ s⁻¹	–
B7	8.1 nM	0.0023 s⁻¹	290000 M⁻¹ s⁻¹	Kd [10]: 9.4 nM; koff [10]: 0.0021 s⁻¹; kon [10]: 230000 M⁻¹ s⁻¹; Kd [11]: 11 nM; koff [11]: 0.0022 s⁻¹; kon [11]: 210000 M⁻¹ s⁻¹
B8	–	–	–	binding result (M12): no binding (tested: 0.2 µg/mL); binding result (M14): no binding (tested: 0.2 µg/mL); binding result (M16): no binding (tested: 0.2 µg/mL); binding result [8]: no binding; binding result (Control IgG1-Fc [12]): no binding (tested: 0.2 µg/mL)
B9	8.4 nM	0.002 s⁻¹	240000 M⁻¹ s⁻¹	–
B10	8.7 nM	0.0022 s⁻¹	250000 M⁻¹ s⁻¹	–
B11	6.8 nM	0.0019 s⁻¹	280000 M⁻¹ s⁻¹	–
B12	7.1 nM	0.0014 s⁻¹	200000 M⁻¹ s⁻¹	–
B13	–	–	–	binding result [13]: no binding
B14	–	–	–	OD450 [14]: 3.03 OD
